For data set [1], the target named is GST-Stat3 Arg31→Ala31 [GST: P08515].
Data set [2] has as its target GST-Stat3 fusion protein, P42227.
The target in data set [3] is mouse STAT3 (endogenous in GT1-7 cells and VSMC, or expressed from mouse STAT3 pcDNA3 in HEK293 cells), P42227.
mouse STAT3 (endogenous in GT1-7 cells and VSMC, or expressed from mouse STAT3 pcDNA3 in HEK293 cells), P42227, sequence (P42227 2-770): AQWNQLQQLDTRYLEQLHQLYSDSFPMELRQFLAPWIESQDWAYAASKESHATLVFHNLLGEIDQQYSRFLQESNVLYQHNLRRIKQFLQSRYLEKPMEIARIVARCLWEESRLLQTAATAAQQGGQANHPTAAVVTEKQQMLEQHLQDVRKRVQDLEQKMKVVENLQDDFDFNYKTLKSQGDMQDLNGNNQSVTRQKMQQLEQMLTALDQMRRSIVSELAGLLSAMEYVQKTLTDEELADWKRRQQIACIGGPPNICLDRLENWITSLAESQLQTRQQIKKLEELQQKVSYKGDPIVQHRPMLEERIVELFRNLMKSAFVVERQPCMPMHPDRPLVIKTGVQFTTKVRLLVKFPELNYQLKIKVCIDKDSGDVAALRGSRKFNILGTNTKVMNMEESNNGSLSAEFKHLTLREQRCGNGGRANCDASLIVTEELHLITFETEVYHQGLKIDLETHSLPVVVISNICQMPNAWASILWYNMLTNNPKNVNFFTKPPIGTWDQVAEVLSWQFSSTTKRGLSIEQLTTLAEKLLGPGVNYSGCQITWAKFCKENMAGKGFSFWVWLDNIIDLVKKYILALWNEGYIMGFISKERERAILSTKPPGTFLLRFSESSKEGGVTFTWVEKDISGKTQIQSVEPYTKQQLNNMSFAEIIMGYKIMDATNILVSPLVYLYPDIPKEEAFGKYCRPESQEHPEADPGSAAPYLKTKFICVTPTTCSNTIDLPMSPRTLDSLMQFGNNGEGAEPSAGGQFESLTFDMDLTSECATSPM

GST-Stat3 fusion protein, P42227, sequence (P42227 whole entry, the tested form may be a part): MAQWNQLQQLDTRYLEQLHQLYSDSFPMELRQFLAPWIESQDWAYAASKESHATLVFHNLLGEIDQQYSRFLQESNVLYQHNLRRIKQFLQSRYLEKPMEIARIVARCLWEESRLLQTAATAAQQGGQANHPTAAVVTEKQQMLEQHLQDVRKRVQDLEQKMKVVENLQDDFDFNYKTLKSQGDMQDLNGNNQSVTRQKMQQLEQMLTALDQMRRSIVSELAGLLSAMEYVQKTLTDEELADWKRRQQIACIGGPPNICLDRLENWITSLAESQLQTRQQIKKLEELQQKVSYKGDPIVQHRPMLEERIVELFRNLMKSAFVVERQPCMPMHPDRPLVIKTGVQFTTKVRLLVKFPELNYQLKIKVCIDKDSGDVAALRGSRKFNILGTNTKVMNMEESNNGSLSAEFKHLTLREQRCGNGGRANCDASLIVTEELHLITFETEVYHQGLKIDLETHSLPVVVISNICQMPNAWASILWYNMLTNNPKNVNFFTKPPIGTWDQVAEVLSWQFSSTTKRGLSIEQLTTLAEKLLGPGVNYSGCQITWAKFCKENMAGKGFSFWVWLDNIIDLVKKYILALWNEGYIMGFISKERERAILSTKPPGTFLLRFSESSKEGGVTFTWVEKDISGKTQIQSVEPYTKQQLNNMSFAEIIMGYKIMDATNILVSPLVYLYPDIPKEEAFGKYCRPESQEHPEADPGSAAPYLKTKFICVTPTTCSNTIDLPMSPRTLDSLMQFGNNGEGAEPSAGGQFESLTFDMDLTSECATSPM
GST-Stat3 Arg31→Ala31 [GST: P08515], sequence (P08515 whole entry, looked up, the tested form may be a part): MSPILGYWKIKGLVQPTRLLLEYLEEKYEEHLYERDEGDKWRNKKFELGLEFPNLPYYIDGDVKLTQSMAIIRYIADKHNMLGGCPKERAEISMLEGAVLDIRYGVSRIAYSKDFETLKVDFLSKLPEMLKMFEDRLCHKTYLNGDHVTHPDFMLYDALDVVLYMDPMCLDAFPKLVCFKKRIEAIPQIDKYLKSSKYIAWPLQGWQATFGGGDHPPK

B1: mouse PRMT2 (untagged; endogenous in NIH3T3 cells, MEFs, GT1-7 cells and VSMC, or expressed from mouse PRMT2 cDNA in HEK293 cells) (protein)
chain: MEAPGEGPCSESQVIPVLEEDPVDYGCEMQLLQDGAQLQLQLQPEEFVAIADYTATDETQLSFLRGEKILILRQTTADWWWGERAGCCGYIPANHLGKQLEEYDPEDTWQDEEYFDSYGTLKLHLEMLADQPRTTKYHSVILQNKESLKDKVILDVGCGTGIISLFCAHHARPKAVYAVEASDMAQHTSQLVLQNGFADTITVFQQKVEDVVLPEKVDVLVSEWMGTCLLFEFMIESILYARDTWLKGDGIIWPTTAALHLVPCSAEKDYHSKVLFWDNAYEFNLSALKSLAIKEFFSRPKSNHILKPEDCLSEPCTILQLDMRTVQVPDLETMRGELRFDIQKAGTLHGFTAWFSVYFQSLEEGQPQQVVSTGPLHPTTHWKQTLFMMDDPVPVHTGDVVHGFCCVTKKSGMEKAHVCLSELGCHVRTRSHVSTELETGSFRSGGDS
For the protein B1, the “in vitro methylation with [3H]-AdoMet, MEF extracts as the enzyme source” value in data set [1] was “This mutation resulted in substantially no methylation of Stat3 (FIG. 20B, lane 3)”; in data set [2], “Cell extracts from wild-type MEFs were also capable of methylating GST-Stat3, whereas cell extracts from PRMT2^-/- cells abolished Stat3 methylation (FIG. 20B, lanes 2 and 4)”. For the same protein, the “leptin-induced Stat3 methylation in VSMC (anti-Stat3 immunoprecipitation, immunoblot with α-metR antibody)” value in data set [3] was “leptin (100 nM) evoked a transient methylation of Stat3 at 10 min in wild-type VSMC (FIG. 22D, lane 2-5), whereas increased Stat3 methylation was not observed in PRMT2^-/- cells (FIG. 22D, lane 6-9)”.

B2: mouse PRMT2-Flag (FLAG-tagged full-length PRMT-2) (protein)
chain: B1 chain
On to B2, for which, in data set [2], the “in vitro methylation with [3H]-AdoMet” value is reported as “Flag fusion protein from the cells transfected wild-type PRMT2-Flag cDNA could methylate GST-Stat3”.

The record behind these values is patent publication US20060239990.
